Experimental findings from US20180016327A1 (Chugai, published 2018) are described below.

B1: CFP0011 11L 53N (antibody, V domains shown)
VH: QVQLVQSGAEVKKPGSSVKVSCKASGGTFSSYAISWVRQAPGQGLEWMGGIIPIFGTANYAQKFQGRVTITADESTSTAYMELSSLRSEDTAVYYCARDMSEFLGWSNYYSYPMDVWGQGTTVTVSS
VL: DIQMTQSPSSLSASVGDRVTITCRASQSIEDDLAWYQQKPGKAPKLLIYHASNLQSGVPSRFSGSGSGTDFTLTISSLQPEDFATYYCQQSDNSPYTFGQGTKVEIK
B2: CFP0021 (antibody, V domains shown)
VH: QVQLVESGGGLVQPGGSLRLSCAASGFTFSDHYMDWVRQAPGKGLEWVGRTRNKANSYTTEYAASVKGRFTISRDDSKNSLYLQMNSLKTEDTAVYYCARTGMMYWGIFDVWGQGTLVTVSS
VL: B1 VL with N53T, S91H, N93S, S94Y, Y96L
notes: IgG format
B3: CFP0017 17L 32N (antibody, V domains shown)
VH: QVQLVQSGAEVKKPGSSVKVSCKASGGTFSSYAISWVRQAPGQGLEWMGGIIPIFGTANYAQKFQGRVTITADESTSTAYMELSSLRSEDTAVYYCARGGWWGGALDYWGQGTLVTVSS
VL: B1 VL with D32N, N53S, N93S, S94Y, Y96L
B4: CFP0011 11L 96H (antibody, V domains shown)
VH: B1 VH
VL: B1 VL with N53S, Y96H
B5: CFP0011 11L 94Y (antibody, V domains shown)
VH: B1 VH
VL: B1 VL with N53S, S94Y
B6: CFP0021 21L 30D (antibody, V domains shown)
VH: B2 VH
VL: B1 VL with E30D, N53T, S91H, N93S, S94Y, Y96L
B7: CFP0011 11L 93R (antibody, V domains shown)
VH: B1 VH
VL: B1 VL with N53S, N93R
B8: CFP0021 21L 30S (antibody, V domains shown)
VH: B2 VH
VL: B1 VL with E30S, N53T, S91H, N93S, S94Y, Y96L
B9: CFP0011 11L 92S (antibody, V domains shown)
VH: B1 VH
VL: B1 VL with N53S, D92S
B10: CFP0011 11L 96P (antibody, V domains shown)
VH: B1 VH
VL: B1 VL with N53S, Y96P
B11: CFP0021 21L 34N (antibody, V domains shown)
VH: B2 VH
VL: B1 VL with A34N, N53T, S91H, N93S, S94Y, Y96L
B12: CFP0021 21L 31A (antibody, V domains shown)
VH: B2 VH
VL: B1 VL with D31A, N53T, S91H, N93S, S94Y, Y96L
B13: CFP0021 21L 32Q (antibody, V domains shown)
VH: B2 VH
VL: B1 VL with D32Q, N53T, S91H, N93S, S94Y, Y96L
B14: CFP0011 11L 91R (antibody, V domains shown)
VH: B1 VH
VL: B1 VL with N53S, S91R
B15: CFP0011 11L 96F (antibody, V domains shown)
VH: B1 VH
VL: B1 VL with N53S, Y96F
B16: CFP0021 21L 30A (antibody, V domains shown)
VH: B2 VH
VL: B1 VL with E30A, N53T, S91H, N93S, S94Y, Y96L
B17: CFP0011 11L 93D (antibody, V domains shown)
VH: B1 VH
VL: B1 VL with N53S, N93D
B18: CFP0021 21L 32N (antibody, V domains shown)
VH: B2 VH
VL: B1 VL with D32N, N53T, S91H, N93S, S94Y, Y96L
B19: CFP0011 11L 96L (antibody, V domains shown)
VH: B1 VH
VL: B1 VL with N53S, Y96L
B20: CFP0011 11L 91H (antibody, V domains shown)
VH: B1 VH
VL: B1 VL with N53S, S91H
B21: CFP0011 11L 93S (antibody, V domains shown)
VH: B1 VH
VL: B1 VL with N53S, N93S
B22: CFP0011 11L 94T (antibody, V domains shown)
VH: B1 VH
VL: B1 VL with N53S, S94T
B23: CFP0011 11L 91Y (antibody, V domains shown)
VH: B1 VH
VL: B1 VL with N53S, S91Y
B24: CFP0021 21L 31N (antibody, V domains shown)
VH: B2 VH
VL: B1 VL with D31N, N53T, S91H, N93S, S94Y, Y96L
B25: CFP0011 11L 93G (antibody, V domains shown)
VH: B1 VH
VL: B1 VL with N53S, N93G
B26: CFP0011 11L 96W (antibody, V domains shown)
VH: B1 VH
VL: B1 VL with N53S, Y96W
B27: CFP0011 11L 96I (antibody, V domains shown)
VH: B1 VH
VL: B1 VL with N53S, Y96I
B28: CFP0011 11L 53T (antibody, V domains shown)
VH: B1 VH
VL: B1 VL with N53T
B29: CFP0021 21L 30H (antibody, V domains shown)
VH: B2 VH
VL: B1 VL with E30H, N53T, S91H, N93S, S94Y, Y96L
B30: CFP0021 21L 31H (antibody, V domains shown)
VH: B2 VH
VL: B1 VL with D31H, N53T, S91H, N93S, S94Y, Y96L

Positions count from the first letter of the chain named.

The target of the assay is T1, human C5 (human, UniProt P01031 19-673; P01031 678-1676, Beta and alpha chains are disulfide-linked and the protein is glycosylated.).
T1 construct: Either in-house recombinant C5 or plasma derived C5 (CALBIOCHEM) was used; also called recombinant human C5; plasma derived human C5
Put plainly: Biacore, captured antibody, pH 7.4, 37 C.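 Note: biacore binding response of anti-C5 antibody light chain variants captured on chip with human C5 injected, ACES running buffer containing 1.2 mM CaCl₂, parent light chain antibody set to 100.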
For B1, the “% binding (parent = 100)” value was determined as 105%. As to B2, the “% binding (parent = 100)” value stood at 100%.

For B3, the “% binding (parent = 100)” value was found to be 27%. Next, B4: 5.1%; B5: -0.7%; B6: 87.5%. On to B7, for which the “% binding (parent = 100)” value was found to be 11.7%. Next, B8: 76.7%. As to B9, the “% binding (parent = 100)” value is 1.1%. Next, B10: -1.6%. Consider B11, for which the “% binding (parent = 100)” value was found to be 14.4%. Next, B12: 31.2%; B13: 80.4%; B14: -2.6%. Then B15, with 82.8%; and B16, with 76.9%; and B17, with 5.4%. As to B18, the “% binding (parent = 100)” value came out at 17.5%. Next, B19: 3.2%; B20: 320%; B21: 4%. In the case of B22, the “% binding (parent = 100)” value amounted to 207%. In the case of B23, the “% binding (parent = 100)” value stood at 56%. In the case of B24, the “% binding (parent = 100)” value was 52.3%.

As to B25, the “% binding (parent = 100)” value was 3.6%. For the molecule B26, the “% binding (parent = 100)” value amounted to 5.4%. Then B27, with 0.8%; and B28, with 98.9%; and B29, with 59.7%. Next, B30: 41.3%.
